Patent publication US20260125454A1 (SHANGHAI JUNSHI BIOSCIENCES, published 2026)
Residue numbers refer to the chain shown, from its start.

T1: Biotin-huCGRPaSA (human, not fully specified; biotin (position not given))
T1 construct: exact construct ('aSA') not explained; also called Biotin CGRPaSA; full-length (1-37) CGRP
T1 peptide: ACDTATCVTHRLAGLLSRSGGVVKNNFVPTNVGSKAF

B1: hu6 (antibody, V domains shown)
VH: QVQLVQSGAEVKKPGASVKVSCKASGYTFTDYNMHWVRQAPGQGLEWMGYIFPYNGVAVYNRKFRSRVTLTIDTSSSTAYMELRSLRSDDTAVYYCAREGLGGYWGQGTLVTVSS
VL: EIVLTQSPATLSLSPGERATLSCKASQNIDFDGYAYMNWYQHKPGQAPRVLIYSVFNLESGIPARFSGSGSGTDFTLTISSLEPEDFAVYYCQQSHEVPYTFGQGTKLEIK
notes: 1B2 HC-1/1F5 LC1-2
B2: hu212 (antibody, V domains shown)
VH: B1 VH with F52Y, V57H, A58T, R62Q, S66N, I72V
VL: DIQLTQSPSFLSASVGDRVTITCKASQNIDYDGYAYLNWYQQKPGKAPKVLIYSVFNLESGVPSRFSGSGSGTEFTLTISSLQPEDFATYYCQQSNEFPYTFGQGTKLEIK
notes: 3H10 HC-2/1A2 LC2-4
B3: hu19 (antibody, V domains shown)
VH: B1 VH with G44R, I72V, R84S, D89E
VL: B1 VL
notes: 1B2 HC-2/1F5 LC1-2
B4: hu109 (antibody, V domains shown)
VH: B1 VH with Y50N, F52Y, V57G, A58T, R62Q, R65N, S66N, I72V, R84S, S85R
VL: B1 VL with H42Q
notes: 2B8 HC1-1/1F5 LC1-1
B5: hu211 (antibody, V domains shown)
VH: B1 VH with F52Y, V57H, A58T, R62Q, S66N, I72V
VL: B1 VL with F31Y, M37L, H42Q, H96N, V98F
notes: 3H10 HC-2/1A2 LC2-3
B6: hu214 (antibody, V domains shown)
VH: B1 VH with F52Y, V57H, A58T, R62Q, S66N, I72V
VL: B1 VL
notes: 3H10 HC-2/1F5 LC1-2
B7: hu42 (antibody, V domains shown)
VH: QVQLVQSGAEVKKPGASVKVSCKASGYTFTDFNMHWVRQAPGQRLEWMGYIYPYNGDVVYNQNFTNRVTLTVDTSSSTAYMELSSLRSEDTAVYYCAREGLGGYWGQGTLVTVSS
VL: B1 VL with F31Y, M37L, H42Q, H96N, V98F
notes: 1F5 HC-2/1A2 LC2-3
B8: hu135 (antibody, V domains shown)
VH: B7 VH with F32Y, R44G, Y50N, G56A, D57G, V58T, N63K, T65N, S85R, E89D
VL: B1 VL with H42Q
notes: 2B8 HC1-3/1F5 LC1-1
B9: hu110 (antibody, V domains shown)
VH: B7 VH with F32Y, R44G, Y50N, D57G, V58T, N63K, T65N, S85R, E89D
VL: B1 VL
notes: 2B8 HC1-1/1F5 LC1-2
B10: hu122 (antibody, V domains shown)
VH: B1 VH with Y50N, F52Y, V57G, A58T, R62Q, R65N, S66N, I72V
VL: B1 VL with H42Q
notes: 2B8 HC1-2/1F5 LC1-1
B11: hu44 (antibody, V domains shown)
VH: B7 VH
VL: B1 VL with H42Q
notes: 1F5 HC-2/1F5 LC1-1
B12: hu17 (antibody, V domains shown)
VH: B1 VH with G44R, I72V, R84S, D89E
VL: B2 VL
notes: 1B2 HC-2/1A2 LC2-4
B13: hu83 (antibody, V domains shown)
VH: B7 VH with T30I, G56A, N63D
VL: B1 VL with H42Q
notes: 1F5 HC-5/1F5 LC1-1
B14: hu201 (antibody, V domains shown)
VH: B1 VH with F52Y, V57H, A58T, R62Q, S66N, L70M, I72V, R98K
VL: B1 VL
notes: 3H10 HC-1/1F5 LC1-2
B15: hu107 (antibody, V domains shown)
VH: B7 VH with F32Y, R44G, Y50N, D57G, V58T, N63K, T65N, S85R, E89D
VL: B1 VL with F31Y, M37L, H42Q, H96N, V98F
notes: 2B8 HC1-1/1A2 LC2-3
B16: hu16 (antibody, V domains shown)
VH: B1 VH with G44R, I72V, R84S, D89E
VL: B1 VL with F31Y, M37L, H42Q, H96N, V98F
notes: 1B2 HC-2/1A2 LC2-3
B17: hu133 (antibody, V domains shown)
VH: B7 VH with F32Y, R44G, Y50N, G56A, D57G, V58T, N63K, T65N, S85R, E89D
VL: B1 VL with F31Y, M37L, H42Q, H96N, V98F
notes: 2B8 HC1-3/1A2 LC2-3
B18: hu96 (antibody, V domains shown)
VH: B7 VH with F32Y, I51V, D57G, V58S, V59A, N63K, T65K, N66S
VL: B1 VL with H42Q
notes: 2A2 HC-1/1F5 LC1-1
B19: hu161 (antibody, V domains shown)
VH: B7 VH with F32Y, Y52S, D57G, V58T, V59A, N63K, T65K, N66F
VL: B1 VL with H42Q
notes: 3E5 HC-2/1F5 LC1-1
B20: hu159 (antibody, V domains shown)
VH: B7 VH with F32Y, Y52S, D57G, V58T, V59A, N63K, T65K, N66F
VL: B1 VL with F31Y, M37L, H42Q, H96N, V98F
notes: 3E5 HC-2/1A2 LC2-3
B21: hu123 (antibody, V domains shown)
VH: B1 VH with Y50N, F52Y, V57G, A58T, R62Q, R65N, S66N, I72V
VL: B1 VL
notes: 2B8 HC1-2/1F5 LC1-2
B22: hu200 (antibody, V domains shown)
VH: B1 VH with F52Y, V57H, A58T, R62Q, S66N, L70M, I72V, R98K
VL: B1 VL with H42Q
notes: 3H10 HC-1/1F5 LC1-1
B23: hu175 (antibody, V domains shown)
VH: QVQLVQSGAEVKKPGASVKVSCKASGYTFTDYNMHWVRQAPGQGLEWMGYISPYNGGTAYNQKFKFRVTLTVDTSSSTAYMELSRLRSDDTVVYYCAREGLGGYWGQGTLVTVSS
VL: B1 VL
notes: 3E5 HC-3/1F5 LC1-2
B24: hu162 (antibody, V domains shown)
VH: B23 VH with G44R, R85S, D89E, V92A
VL: B1 VL
notes: 3E5 HC-2/1F5 LC1-2
B25: hu174 (antibody, V domains shown)
VH: B23 VH
VL: B1 VL with H42Q
notes: 3E5 HC-3/1F5 LC1-1
B26: hu97 (antibody, V domains shown)
VH: B7 VH with F32Y, I51V, D57G, V58S, V59A, N63K, T65K, N66S
VL: B1 VL
notes: 2A2 HC-1/1F5 LC1-2
B27: hu4 (antibody, V domains shown)
VH: B1 VH
VL: B2 VL
notes: 1B2 HC-1/1A2 LC2-4
B28: hu30 (antibody, V domains shown)
VH: B7 VH with T30I
VL: B2 VL
notes: 1F5 HC-1/1A2 LC2-4
B29: hu149 (antibody, V domains shown)
VH: B23 VH with A24T, G44R, R85S, D89E, V92A
VL: B1 VL
notes: 3E5 HC-1/1F5 LC1-2
B30: hu13 (antibody, V domains shown)
VH: B1 VH
VL: B2 VL with F10S, D32G, A35S, L37M, E74D, F98A
notes: 1B2 HC-1/3H10 LC2-2
B31: hu31 (antibody, V domains shown)
VH: B7 VH with T30I
VL: B1 VL with H42Q
notes: 1F5 HC-1/1F5 LC1-1
B32: hu187 (antibody, V domains shown)
VH: B23 VH with A24T, G44R, G56A, R85S, D89E, V92A
VL: B1 VL with H42Q
notes: 3E5 HC-4/1F5 LC1-1
B33: hu148 (antibody, V domains shown)
VH: B23 VH with A24T, G44R, R85S, D89E, V92A
VL: B1 VL with H42Q
notes: 3E5 HC-1/1F5 LC1-1
B34: hu55 (antibody, V domains shown)
VH: B7 VH with R44G, S84R, E89D
VL: B1 VL with F31Y, M37L, H42Q, H96N, V98F
notes: 1F5 HC-3/1A2 LC2-3
B35: hu120 (antibody, V domains shown)
VH: B1 VH with Y50N, F52Y, V57G, A58T, R62Q, R65N, S66N, I72V
VL: B1 VL with F31Y, M37L, H42Q, H96N, V98F
notes: 2B8 HC1-2/1A2 LC2-3
B36: hu198 (antibody, V domains shown)
VH: B1 VH with F52Y, V57H, A58T, R62Q, S66N, L70M, I72V, R98K
VL: B1 VL with F31Y, M37L, H42Q, H96N, V98F
notes: 3H10 HC-1/1A2 LC2-3
B37: hu172 (antibody, V domains shown)
VH: B23 VH
VL: B1 VL with F31Y, M37L, H42Q, H96N, V98F
notes: 3E5 HC-3/1A2 LC2-3
B38: hu18 (antibody, V domains shown)
VH: B1 VH with G44R, I72V, R84S, D89E
VL: B1 VL with H42Q
notes: 1B2 HC-2/1F5 LC1-1
B39: hu57 (antibody, V domains shown)
VH: B7 VH with R44G, S84R, E89D
VL: B1 VL with H42Q
notes: 1F5 HC-3/1F5 LC1-1
B40: hu43 (antibody, V domains shown)
VH: B7 VH
VL: B2 VL
notes: 1F5 HC-2/1A2 LC2-4
B41: hu188 (antibody, V domains shown)
VH: B23 VH with A24T, G44R, G56A, R85S, D89E, V92A
VL: B1 VL
notes: 3E5 HC-4/1F5 LC1-2

Biological target: T1, Biotin-huCGRPaSA
Experiment: ELISA, supernatant; relative to chimeric C245
Outline: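 Plates coated with biotin-CGRPaSA at 1.0 μg/mL (90 min, 37°C) and blocked with 2% BSA. Humanized antibodies and chimeric C245 reference, 2.5-fold serial dilutions from 1000 ng/mL, bound 60 min at 37°C. Detection by HRP anti-human IgG (Fc), TMB 15 min, read at 450/620 nm.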

Binder | Relative binding activity, %
B1 | 93%
B2 | 38%
B3 | 73%
B4 | 78%
B5 | 54%
B6 | 57%
B7 | 55%
B8 | 98%
B9 | 85%
B10 | 97%
B11 | 99%
B12 | 35%
B13 | 102%
B14 | 67%
B15 | 73%
B16 | 39%
B17 | 81%
B18 | 82%
B19 | 88%
B20 | 26%
B21 | 96%

Binder | Relative binding activity, %
B22 | 43%
B23 | 82%
B24 | 81%
B25 | 84%
B26 | 82%
B27 | 58%
B28 | 47%
B29 | 91%
B30 | 27%
B31 | 79%
B32 | 67%
B33 | 100%
B34 | 18%
B35 | 28%
B36 | 39%
B37 | 94%
B38 | 67%
B39 | 78%
B40 | 44%
B41 | 46%
